The values that follow are results of earlier work, collected in article PMC6442720.

In general, Kd refers to the concentration at which binding is half-saturated.

For this data set, the target named is laminin 10 (Homo sapiens) (UniProt O15230).

Regarding integrin α3β1 (from UniProt P26006), the Kd is 7.9 nM.
